Assays:
14-3-3σ = 14-3-3σ (UniProt P31947); test: GST pull-down, 14-3-3σ-His6 western blot; conditions: reference: wild-type GST-PACS-2MR; sites S437
14-3-3ζ = 14-3-3ζ (UniProt P63104); test: PACS-2 co-immunoprecipitation, 14-3-3ζ-myc western blot; conditions: reference: wild-type HA-PACS-2; sites S437

Row | binding against the reference (14-3-3σ) | binding against the reference (14-3-3ζ) | Substance
1 | lost |  | PACS-2 middle region (MR) (from UniProt Q86VP3) S437A
2 |  | lost | PACS-2 (from UniProt Q86VP3) PACS-2 S437A
